The target of the data set is purified Gβγ (G-protein βγ-subunits).

Results on one protein are retold here after patent US20110274694.

B1: His6-Erk2 (purified, wild-type) (protein)
chain: MAAAAAAGPEMVRGQVFDVGPRYTNLSYIGEGAYGMVCSAYDNLNKVRVAIKKISPFEHQTYCQRTLREIKILLRFRHENIIGINDIIRAPTIEQMKDVYIVQDLMETDLYKLLKTQHLSNDHICYFLYQILRGLKYIHSANVLHRDLKPSNLLLNTTCDLKICDFGLARVADPDHDHTGFLTEYVATRWYRAPEIMLNSKGYTKSIDIWSVGCILAEMLSNRPIFPGKHYLDQLNHILGILGSPSQEDLNCIINLKARNYLLSLPHKNKVPWNRLFPNADSKALDLLDKMLTFNPHKRIEVEQALAHPYLEQYYDPSDEPIAEAPFKFDMELDDLPKEKLKELIFEETARFQPGYRS
For the protein B1, the “phosphorylation of Erk2 ([32P]-autoradiography)” value is “caused increased phosphorylation of Erk2 to an extent similar to that caused by Mek*”.
